B1: ΔRBD2-CDTb (residues 212-751), CDTb construct that lacks the C-terminal receptor binding domain 2 (domain or fragment)
chain: SDWEDEDLDTDNDNIPDSYERNGYTIKDLIAVKWEDSFAEQGYKKYVSNYLESNTAGDPYTDYEKASGSFDKAIKTEARDPLVAAYPIVGVGMEKLIISTNEHASTDQGKTVSRATTNSKTESNTAGVSVNVGYQNGFTANVTTNYSHTTDNSTAVQDSNGESWNTGLSINKGESAYINANVRYYNTGTAPMYKVTPTTNLVLDGDTLSTIKAQENQIGNNLSPGDTYPKKGLSPLALNTMDQFSSRLIPINYDQLKKLDAGKQIKLETTQVSGNFGTKNSSGQIVTEGNSWSDYISQIDSISASIILDTENESYERRVTAKNLQDPEDKTPELTIGEAIEKAFGATKKDGLLYFNDIPIDESCVELIFDDNTANKIKDSLKTLSDKKIYNVKLERGMNILIKTPTYFTNFDDYNNYPSTWSNVNTTNQDGLQGSANKLNGETKIKIPMSELKPYKRYVFSGYSKDPLTSNSIIVKIKAKEEKTDYLVPEQGYTKFSYEFETTEKDSSNIEITLIGSGTTYLDNLSITELNSTPEILDEP
B2: activated CDTb (aCDTb; residues 212-876), cell-binding and pore-forming component of the C. difficile binary toxin (CDT) (domain or fragment)
chain: SDWEDEDLDTDNDNIPDSYERNGYTIKDLIAVKWEDSFAEQGYKKYVSNYLESNTAGDPYTDYEKASGSFDKAIKTEARDPLVAAYPIVGVGMEKLIISTNEHASTDQGKTVSRATTNSKTESNTAGVSVNVGYQNGFTANVTTNYSHTTDNSTAVQDSNGESWNTGLSINKGESAYINANVRYYNTGTAPMYKVTPTTNLVLDGDTLSTIKAQENQIGNNLSPGDTYPKKGLSPLALNTMDQFSSRLIPINYDQLKKLDAGKQIKLETTQVSGNFGTKNSSGQIVTEGNSWSDYISQIDSISASIILDTENESYERRVTAKNLQDPEDKTPELTIGEAIEKAFGATKKDGLLYFNDIPIDESCVELIFDDNTANKIKDSLKTLSDKKIYNVKLERGMNILIKTPTYFTNFDDYNNYPSTWSNVNTTNQDGLQGSANKLNGETKIKIPMSELKPYKRYVFSGYSKDPLTSNSIIVKIKAKEEKTDYLVPEQGYTKFSYEFETTEKDSSNIEITLIGSGTTYLDNLSITELNSTPEILDEPEVKIPTDQEIMDAHKIYFADLNFNPSTGNTYINGMYFAPTQTNKEALDYIQKYRVEATLQYSGFKDIGTKDKEMRNYLGDPNQPKTNYVNLRSYFTGGENIMTYKKLRIYAITPDDRELLVLSVD

Legend:
SEC-MALS = biological target: the molecule itself; experiment: SEC-MALS
AUC + SEC-MALS = biological target: the molecule itself; experiment: AUC + SEC-MALS

Row | Protein | stoichiometry N (SEC-MALS) | stoichiometry N (AUC + SEC-MALS)
1 | B1 | 7 | –
2 | B2 | – | 14

— doi:10.1101/833699 (bioRxiv, 2019)
